What all share (test): SPR; Biacore X100; CagA immobilised on CM5 chip by amine coupling, SHP2 or SHP2/SH2 as analyte; KD from Scatchard plots; three independent measurements
Experiment [1] deals with pY-CagA(C5)-His (tyrosine-phosphorylated Western CagA with five EPIYA-C segments) (Helicobacter pylori).
Experiment [2] deals with pY-CagA(C3)-His (tyrosine-phosphorylated Western CagA with three EPIYA-C segments) (Helicobacter pylori).
The target of experiment [3] is pY-CagA(C8)-His (tyrosine-phosphorylated Western CagA with eight EPIYA-C segments) (Helicobacter pylori).
For experiment [4], the target named is pY-CagA(C2)-His (tyrosine-phosphorylated Western CagA with two EPIYA-C segments) (Helicobacter pylori).
In experiment [5] the target is pY-CagA(C1)-His (tyrosine-phosphorylated Western CagA with one EPIYA-C segment) (Helicobacter pylori).

In general, Kd refers to the constant that tells how readily two partners part at equilibrium.

B1: SHP2/SH2 (recombinant N-terminal SHP2 fragment containing two SH2 domains, analyte of the SPR) (domain or fragment)
chain: MTSRRWFHPNITGVEAENLLLTRGVDGSFLARPSKSNPGDFTLSVRRNGAVTHIKIQNTGDYYDLYGGEKFATLAELVQYYMEHHGQLKEKNGDVIELKYPLNCADPTSERWFHGHLSGKEAEKLLTEKGKHGSFLVRESQSHPGDFVLSVRTGDDKGESNDGKSKVTHVMIRCQELKYDVGGGERFDSLTDLVEHYKKNPMVETLGTVLQLKQPLNTTR
For B1, the dissociation constant Kd in experiment [1] was determined as 77.8 nM; in experiment [2] it was 123 nM; in experiment [3], 40.1 nM; in experiment [4], 208 nM; in experiment [5], 24100 nM.

B2: full-length SHP2 (recombinant) (enzyme)
chain: MTSRRWFHPNITGVEAENLLLTRGVDGSFLARPSKSNPGDFTLSVRRNGAVTHIKIQNTGDYYDLYGGEKFATLAELVQYYMEHHGQLKEKNGDVIELKYPLNCADPTSERWFHGHLSGKEAEKLLTEKGKHGSFLVRESQSHPGDFVLSVRTGDDKGESNDGKSKVTHVMIRCQELKYDVGGGERFDSLTDLVEHYKKNPMVETLGTVLQLKQPLNTTRINAAEIESRVRELSKLAETTDKVKQGFWEEFETLQQQECKLLYSRKEGQRQENKNKNRYKNILPFDHTRVVLHDGDPNEPVSDYINANIIMPEFETKCNNSKPKKSYIATQGCLQNTVNDFWRMVFQENSRVIVMTTKEVERGKSKCVKYWPDEYALKEYGVMRVRNVKESAAHDYTLRELKLSKVGQGNTERTVWQYHFRTWPDHGVPSDPGGVLDFLEEVHHKQESIMDAGPVVVHCSAGIGRTGTFIVIDILIDIIREKGVDCDIDVPKTIQMVRSQRSGMVQTEAQYRFIYMAVQHYIETLQRRIEEEQKSKRKGHEYTNIKYSLADQTSGDQSPLPPCTPTPPCAEMREDSARVYENVGLMQQQKSFR
Turning to B2, the Kd in experiment [4] worked out at 369 nM.
